B1: Proliferation-associated protein 2G4 (Homo sapiens), Q9UQ80 (parent)
chain: MSGEDEQQEQTIAEDLVVTKYKMGGDIANRVLRSLVEASSSGVSVLSLCEKGDAMIMEETGKIFKKEKEMKKGIAFPTSISVNNCVCHFSPLKSDQDYILKEGDLVKIDLGVHVDGFIANVAHTFVVDVAQGTQVTGRKADVIKAAHLCAEAALRLVKPGNQNTQVTEAWNKVAHSFNCTPIEGMLSHQLKQHVIDGEKTIIQNPTDQQKKDHEKAEFEVHEVYAVDVLVSSGEGKAKDAGQRTTIYKRDPSKQYGLKMKTSRAFFSEVERRFDAMPFTLRAFEDEKKARMGVVECAKHELLQPFNVLYEKEGEFVAQFKFTVLLMPNGPMRITSGPFEPDLYKSEMEVQDAELKALLQSSASRKTQKKKKKKASKTAENATSGETLEENEAGD
partner: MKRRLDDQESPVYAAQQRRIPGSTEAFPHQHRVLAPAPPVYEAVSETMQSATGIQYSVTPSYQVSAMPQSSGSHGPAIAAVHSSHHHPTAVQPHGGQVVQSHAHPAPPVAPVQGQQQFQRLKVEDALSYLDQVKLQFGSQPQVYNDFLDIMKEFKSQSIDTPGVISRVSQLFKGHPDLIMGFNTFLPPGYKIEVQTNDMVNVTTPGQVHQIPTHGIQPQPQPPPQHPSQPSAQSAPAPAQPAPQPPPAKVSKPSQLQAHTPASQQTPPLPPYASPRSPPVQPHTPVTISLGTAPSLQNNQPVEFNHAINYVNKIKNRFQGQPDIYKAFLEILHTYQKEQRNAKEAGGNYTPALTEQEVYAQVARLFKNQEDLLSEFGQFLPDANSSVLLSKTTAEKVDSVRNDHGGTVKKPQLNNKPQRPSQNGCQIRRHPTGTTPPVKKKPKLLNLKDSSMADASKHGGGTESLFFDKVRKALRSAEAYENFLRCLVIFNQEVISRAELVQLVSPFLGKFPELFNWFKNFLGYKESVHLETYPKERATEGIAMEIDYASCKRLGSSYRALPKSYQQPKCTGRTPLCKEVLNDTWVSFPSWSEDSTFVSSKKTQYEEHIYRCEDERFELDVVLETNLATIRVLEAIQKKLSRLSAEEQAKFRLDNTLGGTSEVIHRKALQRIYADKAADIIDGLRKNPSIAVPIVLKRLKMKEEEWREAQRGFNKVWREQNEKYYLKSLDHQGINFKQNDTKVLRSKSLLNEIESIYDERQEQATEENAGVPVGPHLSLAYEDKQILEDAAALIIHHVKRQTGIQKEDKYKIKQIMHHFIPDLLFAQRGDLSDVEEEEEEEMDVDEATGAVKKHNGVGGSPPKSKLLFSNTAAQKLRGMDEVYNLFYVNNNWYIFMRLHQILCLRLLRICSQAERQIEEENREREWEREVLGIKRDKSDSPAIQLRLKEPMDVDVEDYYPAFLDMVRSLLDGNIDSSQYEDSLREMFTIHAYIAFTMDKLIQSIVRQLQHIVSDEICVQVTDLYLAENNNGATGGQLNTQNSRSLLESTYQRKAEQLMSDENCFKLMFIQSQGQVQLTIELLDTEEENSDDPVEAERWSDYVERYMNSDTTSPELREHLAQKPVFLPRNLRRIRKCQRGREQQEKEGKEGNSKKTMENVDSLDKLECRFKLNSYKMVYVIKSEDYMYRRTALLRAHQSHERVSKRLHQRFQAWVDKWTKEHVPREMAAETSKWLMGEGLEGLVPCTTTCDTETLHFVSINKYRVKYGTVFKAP

In this experiment the parent is B1. The conditions noted are these: with sin3a_human SIN3A.
With MSGEDEQQEQTIAEDLVVTKYKMGGDIANRVLRSLVEASSSGVSVLSLCEKGDAMIMEETGKIFKKEKEMKKGIAFPTSISVNNCVCHFSPLKSDQDYILKEGDLVKIDLGVHVDGFIANVAHTFVVDVAQGTQVTGRKADVIKAAHLCAEAALRLVKPGNQNTQVTEAWNKVAHSFNCTPIEGMLSHQLKQHVIDGEKTIIQNPTDQQKKDHEKAEFEVHEVYAVDVLVSSGEGKAKDAGQRTTIYKRDPSKQYGLKMKTSRAFFSEVERRFDAMPFTLRAFEDEKKARMGVVECAKHELLQPFNVLYEKEGEFVAQFKFTVLLMPNGPMRITSGPFEPDLYKSEMEVQDAELKAAAQSSASRKTQKKKKKKASKTAENATSGETLEENEAGD [L357A;L358A], the “effect of a mutation on the interaction” value is “disrupting interaction”.

Values taken from IntAct's records for PubMed 16254079.
